Source: publication PMC5115986 (Journal of molecular biology, 2016)

T1: GST-Dbf4 (budding yeast, UniProt P32325 1-704)
T1 sequence (looked up): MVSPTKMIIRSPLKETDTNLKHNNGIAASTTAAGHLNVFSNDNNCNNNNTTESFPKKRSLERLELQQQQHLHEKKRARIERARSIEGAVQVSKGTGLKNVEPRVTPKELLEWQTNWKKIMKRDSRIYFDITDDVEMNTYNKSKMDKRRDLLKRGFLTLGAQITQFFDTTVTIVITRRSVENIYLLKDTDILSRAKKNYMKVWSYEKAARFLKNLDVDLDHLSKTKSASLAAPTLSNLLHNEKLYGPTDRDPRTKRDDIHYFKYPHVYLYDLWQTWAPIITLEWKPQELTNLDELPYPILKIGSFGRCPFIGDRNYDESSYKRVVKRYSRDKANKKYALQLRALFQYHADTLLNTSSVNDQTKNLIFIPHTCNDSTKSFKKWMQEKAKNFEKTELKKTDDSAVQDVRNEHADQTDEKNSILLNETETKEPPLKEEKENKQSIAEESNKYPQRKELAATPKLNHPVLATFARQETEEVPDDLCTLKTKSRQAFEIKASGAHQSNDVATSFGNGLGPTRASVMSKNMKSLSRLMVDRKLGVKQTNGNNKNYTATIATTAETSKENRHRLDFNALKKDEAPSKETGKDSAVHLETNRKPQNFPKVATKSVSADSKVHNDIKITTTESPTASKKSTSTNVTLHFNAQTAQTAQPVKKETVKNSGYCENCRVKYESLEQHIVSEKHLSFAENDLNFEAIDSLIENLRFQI

T2: GST-Cdc45 (budding yeast, UniProt Q08032 1-650)
T2 sequence (looked up): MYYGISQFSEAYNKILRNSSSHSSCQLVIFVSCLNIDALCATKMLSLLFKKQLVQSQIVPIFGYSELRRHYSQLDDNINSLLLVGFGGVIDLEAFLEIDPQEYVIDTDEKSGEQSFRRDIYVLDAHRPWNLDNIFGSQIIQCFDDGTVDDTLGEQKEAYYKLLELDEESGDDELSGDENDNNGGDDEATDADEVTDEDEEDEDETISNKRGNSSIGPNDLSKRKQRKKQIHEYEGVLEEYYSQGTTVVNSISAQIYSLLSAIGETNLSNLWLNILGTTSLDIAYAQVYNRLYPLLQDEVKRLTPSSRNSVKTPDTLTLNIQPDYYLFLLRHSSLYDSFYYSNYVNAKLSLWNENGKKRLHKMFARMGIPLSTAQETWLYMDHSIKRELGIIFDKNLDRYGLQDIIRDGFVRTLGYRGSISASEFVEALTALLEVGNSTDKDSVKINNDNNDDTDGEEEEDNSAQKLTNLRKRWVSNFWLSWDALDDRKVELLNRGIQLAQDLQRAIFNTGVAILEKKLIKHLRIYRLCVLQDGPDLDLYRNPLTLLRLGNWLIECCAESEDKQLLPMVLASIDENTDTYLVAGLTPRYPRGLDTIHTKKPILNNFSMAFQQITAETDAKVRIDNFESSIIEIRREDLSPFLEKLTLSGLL


How the values were obtained:
GST-Dbf4 = target: T1, GST-Dbf4; test: pull-down
GST-Cdc45 = target: T2, GST-Cdc45; test: pull-down

| binding result (GST-Dbf4) | binding result (GST-Cdc45) | Binder |
| --- | --- | --- |
| binds |  | PKA-Mcm10 (wild-type), radiolabeled (natural protein, Saccharomyces cerevisiae, UniProt P32354 1-571, looked up, 32P label put on the PKA tag by protein kinase A with [gamma-32P]-ATP) MNDPREILAVDPYNNITSDEEDEQAIARELEFMERKRQALVERLKRKQEFKKPQDPNFEAIEVPQSPTKNRVKVGSHNATQQGTKFEGSNINEVRLSQLQQQPKPPASTTTYFMEKFQNAKKNEDKQIAKFESMMNARVHTFSTDEKKYVPIITNELESFSNLWVKKRYIPEDDLKRALHEIKILRLGKLFAKIRPPKFQEPEYANWATVGLISHKSDIKFTSSEKPVKFFMFTITDFQHTLDVYIFGKKGVERYYNLRLGDVIAILNPEVLPWRPSGRGNFIKSFNLRISHDFKCILEIGSSRDLGWCPIVNKKTHKKCGSPINISLHKCCDYHREVQFRGTSAKRIELNGGYALGAPTKVDSQPSLYKAKGENGFNIIKGTRKRLSEEEERLKKSSHNFTNSNSAKAFFDEKFQNPDMLANLDNKRRKIIETKKSTALSRELGKIMRRRESSGLEDKSVGERQKMKRTTESALQTGLIQRLGFDPTHGKISQVLKSSVSGSEPKNNLLGKKKTVINDLLHYKKEKVILAPSKNEWFKKRSHREEVWQKHFGSKETKETSDGSASDLEII |
| binds | binds | PKA-Mcm10-m2,3,4 (Mcm10-K216E-N313E-K314E), radiolabeled (natural protein, Saccharomyces cerevisiae, UniProt P32354 1-571, looked up, 32P label put on the PKA tag by protein kinase A with [gamma-32P]-ATP) MNDPREILAVDPYNNITSDEEDEQAIARELEFMERKRQALVERLKRKQEFKKPQDPNFEAIEVPQSPTKNRVKVGSHNATQQGTKFEGSNINEVRLSQLQQQPKPPASTTTYFMEKFQNAKKNEDKQIAKFESMMNARVHTFSTDEKKYVPIITNELESFSNLWVKKRYIPEDDLKRALHEIKILRLGKLFAKIRPPKFQEPEYANWATVGLISHESDIKFTSSEKPVKFFMFTITDFQHTLDVYIFGKKGVERYYNLRLGDVIAILNPEVLPWRPSGRGNFIKSFNLRISHDFKCILEIGSSRDLGWCPIVEEKTHKKCGSPINISLHKCCDYHREVQFRGTSAKRIELNGGYALGAPTKVDSQPSLYKAKGENGFNIIKGTRKRLSEEEERLKKSSHNFTNSNSAKAFFDEKFQNPDMLANLDNKRRKIIETKKSTALSRELGKIMRRRESSGLEDKSVGERQKMKRTTESALQTGLIQRLGFDPTHGKISQVLKSSVSGSEPKNNLLGKKKTVINDLLHYKKEKVILAPSKNEWFKKRSHREEVWQKHFGSKETKETSDGSASDLEII |
